From paper PMC4755594, “Structure of a Bacterial Virus DNA-Injection Protein Complex Reveals a Decameric Assembly with a Constricted Molecular Channel” (PLoS ONE, 2016)

Target: the molecule itself
Assay: SEC; refolded gp12 after Ni-NTA on Hiload Superdex 200; decamer peak at 54.6 ml, monomer peak at 73.6 ml; pooled decamer fractions run again

B1: bacteriophage Sf6 DNA-injection protein gp12 (natural protein, UniProt Q716G3 1-431, looked up)
chain: MATWQGSNGGLLAGIGGVNSNAPSVNDIGNTLQLIRQNNDIERSGANNVGLTALQGLSGIAGVFQQEKQARRQKEFQQAYANAYASGDRGALRQLATQYPDQIESVRKGMGFIDEDQRNSIGTLAAGARLAASSPEAMQSWLQNNANELARVGVDPNNVAQMYQQNPSGFGEFVDHLGMAALGPIDYFNVQDKMAGREIDRGRLAETIRSNKAGEALTVRGQDIQIRGQNISAQNAALSREIQRAELQEKALDRQIARESNQLKLEELKQKQADVRQKADIARADRQAAAQGAVDTFSTALDSLNEIEQSPGLSKAVGIRSAFPTVPGSDAANFEARLDTFKAQTFLPMVQSLKGMGALSDAEGKKLSDAVGALSPKMSEKAFRDSIGKIRNQLESKLSTVKKQFDYQEPVQNTPVQQPTTGSNFSSLWGD
notes: gp12 (product of gene 12) of bacteriophage Sf6, 431 residues, 46.5 kDa; ortholog of phage P22 gp20; The same preparation gave a monomer peak and a decamer peak on SEC; the assembled form has 10 copies of the chain; also called Sf6 gp12; gp12 monomer
- stoichiometry N: 10
